Results as given in publication PMC2756588.

B1: unnamed (peptide)
chain: RFKRHRLEFPFNESE
B2: unnamed (peptide)
chain: FHLNPKRSAVLYDRP
B3: unnamed (peptide)
chain: SNRRPVPRRPSQPLN

target: T1, Hof1, Q05080; experiment: SPOT array; conditions: median of control spots 4086
T1 sequence (Q05080 590-669, looked up): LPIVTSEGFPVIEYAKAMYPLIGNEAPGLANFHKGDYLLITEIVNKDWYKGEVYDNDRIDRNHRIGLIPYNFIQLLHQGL

SPOT intensity | Binder
9 | B1
83 | B2
18 | B3

target: T2, Fus1, P11710; experiment: SPOT array; conditions: median of control spots 1200
T2 sequence (P11710 432-512, looked up): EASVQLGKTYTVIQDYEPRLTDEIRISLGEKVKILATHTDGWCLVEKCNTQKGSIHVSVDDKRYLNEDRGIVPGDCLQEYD

SPOT intensity | Binder
34 | B1
309 | B2
0 | B3

target: Sho1, P40073; experiment: SPOT array; conditions: median of control spots 1148
Sequence (P40073 287-367): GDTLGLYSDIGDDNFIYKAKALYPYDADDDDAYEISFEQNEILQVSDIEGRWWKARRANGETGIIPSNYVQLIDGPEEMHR

SPOT intensity | Binder
41 | B1
35 | B2
31 | B3

target: Bem1-2, P29366; experiment: SPOT array; conditions: median of control spots 4347
Sequence (P29366 139-227): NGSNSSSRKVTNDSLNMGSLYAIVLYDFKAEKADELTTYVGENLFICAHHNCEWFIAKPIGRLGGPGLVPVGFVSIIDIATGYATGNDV

SPOT intensity | Binder
4 | B1
308 | B2
29 | B3

target: T3, Pex13, P80667; experiment: SPOT array; conditions: median of control spots 1341
T3 sequence (P80667 295-386, looked up): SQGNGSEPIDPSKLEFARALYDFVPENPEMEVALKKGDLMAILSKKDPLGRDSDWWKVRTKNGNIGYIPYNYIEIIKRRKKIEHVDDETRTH

SPOT intensity | Binder
13 | B1
35 | B2
129 | B3

target: T4, Lsb1, P53281; experiment: SPOT array; conditions: median of control spots 388
T4 sequence (P53281 45-122, looked up): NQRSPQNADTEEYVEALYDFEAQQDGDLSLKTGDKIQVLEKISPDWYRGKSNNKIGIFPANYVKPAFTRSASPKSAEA

SPOT intensity | Binder
53 | B1
0 | B2
576 | B3

target: T5, Bzz1-2, P38822; experiment: SPOT array; conditions: median of control spots 4538
T5 sequence (P38822 568-633, looked up): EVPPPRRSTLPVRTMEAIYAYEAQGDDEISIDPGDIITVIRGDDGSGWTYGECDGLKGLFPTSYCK

SPOT intensity | Binder
7 | B1
38 | B2
60 | B3

target: T6, Nbp2, Q12163; experiment: SPOT array; conditions: median of control spots 357
T6 sequence (Q12163 103-180, looked up): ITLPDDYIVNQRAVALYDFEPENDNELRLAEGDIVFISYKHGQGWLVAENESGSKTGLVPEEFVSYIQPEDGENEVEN

SPOT intensity | Binder
14 | B1
0 | B2
46 | B3

target: T7, Lsb4, P32793; experiment: SPOT array; conditions: median of control spots 397
T7 sequence (P32793 402-468, looked up): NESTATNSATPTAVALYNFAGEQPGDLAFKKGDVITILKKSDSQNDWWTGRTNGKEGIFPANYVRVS

SPOT intensity | Binder
0 | B1
0 | B2
333 | B3

target: T8, Lsb3, P43603; experiment: SPOT array; conditions: median of control spots 406
T8 sequence (P43603 385-451, looked up): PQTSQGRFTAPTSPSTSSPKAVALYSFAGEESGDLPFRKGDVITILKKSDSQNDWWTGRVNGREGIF

SPOT intensity | Binder
0 | B1
0 | B2
183 | B3

target: T9, Boi1, P38041; experiment: SPOT array; conditions: median of control spots 1162
T9 sequence (P38041 1-86, looked up): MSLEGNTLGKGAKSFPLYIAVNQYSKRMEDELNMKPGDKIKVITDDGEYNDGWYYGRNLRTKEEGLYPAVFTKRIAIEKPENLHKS

SPOT intensity | Binder
0 | B1
0 | B2
2 | B3

target: Bem1-1, P29366; experiment: SPOT array; conditions: median of control spots 4282
Sequence (P29366 55-141): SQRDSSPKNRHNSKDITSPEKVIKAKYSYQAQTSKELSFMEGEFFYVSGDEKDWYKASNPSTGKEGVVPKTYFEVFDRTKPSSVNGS

SPOT intensity | Binder
1 | B1
245 | B2
1 | B3

target: Myo3, P36006; experiment: SPOT array; conditions: median of control spots 468

SPOT intensity | Binder
0 | B1
0 | B2
3 | B3

target: T10, Cyk3, Q07533; experiment: SPOT array; conditions: median of control spots 1451
T10 sequence (Q07533 1-83, looked up): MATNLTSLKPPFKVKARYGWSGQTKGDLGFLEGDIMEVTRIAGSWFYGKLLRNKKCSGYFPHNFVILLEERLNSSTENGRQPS

SPOT intensity | Binder
0 | B1
0 | B2
0 | B3

target: T11, Hse1, P38753; experiment: SPOT array; conditions: median of control spots 1727
T11 sequence (P38753 208-285, looked up): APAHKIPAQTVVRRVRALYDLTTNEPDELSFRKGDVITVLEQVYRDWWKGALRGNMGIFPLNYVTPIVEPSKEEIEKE

SPOT intensity | Binder
32 | B1
40 | B2
9 | B3

target: T12, Abp1, P15891; experiment: SPOT array; conditions: median of control spots 935
T12 sequence (P15891 535-592, looked up): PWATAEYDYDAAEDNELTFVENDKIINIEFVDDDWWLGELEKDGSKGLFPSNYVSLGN

SPOT intensity | Binder
36 | B1
24 | B2
139 | B3

target: T13, Myo5, Q04439; experiment: SPOT array; conditions: median of control spots 471
T13 sequence (Q04439 1072-1160, looked up): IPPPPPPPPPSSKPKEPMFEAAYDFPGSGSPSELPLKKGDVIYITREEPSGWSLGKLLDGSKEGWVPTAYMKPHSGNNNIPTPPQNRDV

SPOT intensity | Binder
0 | B1
1 | B2
0 | B3

target: T14, Boi2, P39969; experiment: SPOT array; conditions: median of control spots 1161
T14 sequence (P39969 32-116, looked up): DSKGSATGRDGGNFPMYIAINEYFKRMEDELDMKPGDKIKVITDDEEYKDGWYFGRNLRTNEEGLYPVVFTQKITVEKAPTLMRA

SPOT intensity | Binder
0 | B1
0 | B2
1 | B3

target: T15, Cdc25, P04821; experiment: SPOT array; conditions: median of control spots 969
T15 sequence (P04821 50-136, looked up): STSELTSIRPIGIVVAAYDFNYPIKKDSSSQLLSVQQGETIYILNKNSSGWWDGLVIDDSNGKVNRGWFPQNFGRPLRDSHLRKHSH

SPOT intensity | Binder
142 | B1
25 | B2
35 | B3

target: T16, Bbc1, P47068; experiment: SPOT array; conditions: median of control spots 796
T16 sequence (P47068 1-78, looked up): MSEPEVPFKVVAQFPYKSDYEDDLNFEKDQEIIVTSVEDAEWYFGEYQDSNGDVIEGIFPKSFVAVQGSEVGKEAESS

SPOT intensity | Binder
36 | B1
10 | B2
248 | B3

target: T17, Sla1-2, P32790; experiment: SPOT array; conditions: median of control spots 712
T17 sequence (P32790 60-140, looked up): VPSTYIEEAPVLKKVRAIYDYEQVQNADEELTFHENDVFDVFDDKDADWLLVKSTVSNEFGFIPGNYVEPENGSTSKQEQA

SPOT intensity | Binder
0 | B1
0 | B2
0 | B3

target: T18, Bud14, P27637; experiment: SPOT array; conditions: median of control spots 956
T18 sequence (P27637 247-328, looked up): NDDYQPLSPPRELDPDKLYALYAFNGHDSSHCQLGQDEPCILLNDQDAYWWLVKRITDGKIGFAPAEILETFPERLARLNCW

SPOT intensity | Binder
4 | B1
9 | B2
16 | B3

target: T19, Pin3, Q06449; experiment: SPOT array; conditions: median of control spots 2171
T19 sequence (Q06449 53-122, looked up): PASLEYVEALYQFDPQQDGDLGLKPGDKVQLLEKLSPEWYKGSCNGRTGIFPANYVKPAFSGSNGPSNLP

SPOT intensity | Binder
15 | B1
32 | B2
12 | B3

target: T20, Sla1-3, P32790; experiment: SPOT array; conditions: median of control spots 5475
T20 sequence (P32790 344-424, looked up): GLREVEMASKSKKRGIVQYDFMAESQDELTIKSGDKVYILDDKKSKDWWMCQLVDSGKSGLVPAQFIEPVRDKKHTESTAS

SPOT intensity | Binder
97 | B1
140 | B2
459 | B3

target: Rvs167, P39743; experiment: SPOT array; conditions: median of control spots 2707
Sequence (P39743 419-482): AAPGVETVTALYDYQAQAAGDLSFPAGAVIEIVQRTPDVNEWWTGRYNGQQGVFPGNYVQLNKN

SPOT intensity | Binder
0 | B1
7 | B2
3400 | B3

target: T21, Bzz1-1, P38822; experiment: SPOT array; conditions: median of control spots 4446
T21 sequence (P38822 478-572, looked up): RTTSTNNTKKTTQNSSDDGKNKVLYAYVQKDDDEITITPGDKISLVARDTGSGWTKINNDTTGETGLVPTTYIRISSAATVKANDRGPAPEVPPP

SPOT intensity | Binder
0 | B1
3 | B2
0 | B3

target: GST; experiment: SPOT array; conditions: median of control spots 978

SPOT intensity | Binder
0 | B1
5 | B2
0 | B3
